B1: PH and SEC7 domain-containing protein 1 (Homo sapiens), A5PKW4 (parent)
chain: MAQGAMRFCSEGDCAISPPRCPRRWLPEGPVPQSPPASMYGSTGSLLRRVAGPGPRGRELGRVTAPCTPLRGPPSPRVAPSPWAPSSPTGQPPPGAQSSVVIFRFVEKASVRPLNGLPAPGGLSRSWDLGGVSPPRPTPALGPGSNRKLRLEASTSDPLPARGGSALPGSRNLVHGPPAPPQVGADGLYSSLPNGLGGPPERLATLFGGPADTGFLNQGDTWSSPREVSSHAQRIARAKWEFFYGSLDPPSSGAKPPEQAPPSPPGVGSRQGSGVAVGRAAKYSETDLDTVPLRCYRETDIDEVLAEREEADSAIESQPSSEGPPGTAYPPAPRPGPLPGPHPSLGSGNEDEDDDEAGGEEDVDDEVFEASEGARPGSRMPLKSPVPFLPGTSPSADGPDSFSCVFEAILESHRAKGTSYTSLASLEALASPGPTQSPFFTFELPPQPPAPRPDPPAPAPLAPLEPDSGTSSAADGPWTQRGEEEEAEARAKLAPGREPPSPCHSEDSLGLGAAPLGSEPPLSQLVSDSDSELDSTERLALGSTDTLSNGQKADLEAAQRLAKRLYRLDGFRKADVARHLGKNNDFSKLVAGEYLKFFVFTGMTLDQALRVFLKELALMGETQERERVLAHFSQRYFQCNPEALSSEDGAHTLTCALMLLNTDLHGHNIGKRMTCGDFIGNLEGLNDGGDFPRELLKALYSSIKNEKLQWAIDEEELRRSLSELADPNPKVIKRISGGSGSGSSPFLDLTPEPGAAVYKHGALVRKVHADPDCRKTPRGKRGWKSFHGILKGMILYLQKEEYKPGKALSETELKNAISIHHALATRASDYSKRPHVFYLRTADWRVFLFQAPSLEQMQSWITRINVVAAMFSAPPFPAAVSSQKKFSRPLLPSAATRLSQEEQVRTHEAKLKAMASELREHRAAQLGKKGRGKEAEEQRQKEAYLEFEKSRYSTYAALLRVKLKAGSEELDAVEAALAQAGSTEDGLPPSHSSPSLQPKPSSQPRAQRHSSEPRPGAGSGRRKP

Variants of: B1
Details: with arf6_human ARF6, P62330
Chain of arf6_human ARF6, P62330 (P62330 whole entry): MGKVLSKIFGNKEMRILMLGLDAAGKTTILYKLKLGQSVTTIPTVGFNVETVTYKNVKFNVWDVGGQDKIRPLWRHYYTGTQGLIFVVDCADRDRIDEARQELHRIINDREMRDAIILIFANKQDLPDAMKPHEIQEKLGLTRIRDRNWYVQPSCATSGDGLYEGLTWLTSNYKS

| Variant | effect of a mutation on the interaction |
| --- | --- |
| E621K | disrupting interaction |

Variants of: B1
Details: with arf6_human ARF6, P62330
Remark: another data set of the same source

| Variant | effect of a mutation on the interaction |
| --- | --- |
| E621K | decreasing interaction |

Variants of: B1
Details: with arf6_human ARF6, P62330
Remark: another data set of the same source

| Variant | effect of a mutation on the interaction |
| --- | --- |
| K766E | decreasing interaction |
| R765E | decreasing interaction |

Reference: IntAct's records for PubMed 23603394
